Assay results: paper PMC6624373

B1: lamin A (human, mature form, without tags, wild type) [human] / itself (parent)
chain: METPSQRRATRSGAQASSTPLSPTRITRLQEKEDLQELNDRLAVYIDRVRSLETENAGLRLRITESEEVVSREVSGIKAAYEAELGDARKTLDSVAKERARLQLELSKVREEFKELKARNTKKEGDLIAAQARLKDLEALLNSKEAALSTALSEKRTLEGELHDLRGQVAKLEAALGEAKKQLQDEMLRRVDAENRLQTMKEELDFQKNIYSEELRETKRRHETRLVEIDNGKQREFESRLADALQELRAQHEDQVEQYKKELEKTYSAKLDNARQSAERNSNLVGAAHEELQQSRIRIDSLSAQLSQLQKQLAAKEAKLRDLEDSLARERDTSRRLLAEKEREMAEMRARMQQQLDEYQELLDIKLALDMEIHAYRKLLEGEEERLRLSPSPTSQRSRGRASSHSSQTQGGGSVTKKRKLESTESRSSFSQHARTSGRVAVEEVDEEGKFVRLRNKSNEDQSMGNWQIKRQNGDDPLLTYRFPPKFTLKAGQVVTIWAAGAGATHSPPTDLVWKAQNTWGCGNSLRTALINSTGEEVAMRKLVRSVTVVEDDEDEDGDDLLHHHHGSHCSSSGDPAEYNLRSRTVLCGTCGQPADKASASGSGAQVGGPISSGSSASSVTVTRSYRSVGGSGGGSFGDNLVTRSY

Variants of: B1
Assay: rotary metal shadowing EM
Conditions: with itself; n = 1000 per mutant; parent: 22; read off a plot

Variant	screen value [%]
chain 1 R7E R8E	13

Same assay, conditions: with itself; n = 1000 per mutant; parent: 35; read off a plot

Variant	screen value [%]
chain 1 R7E R8E	30

Same assay, conditions: with itself; n = 1000 per mutant; parent: 43; read off a plot

Variant	screen value [%]
chain 1 R7E R8E	57

Variants of: B1
Assay: in vitro assembly/solubility assay (centrifugation, SDS-PAGE band quantification)
Conditions: with itself; oligomerisation buffer; n = 3 independent replicas; parent: 1; read off a plot

Variant	ratio to parent
chain 1 R7E R8E	3.7
